Results on three substances are retold here after patent publication US20240277803A1, “NME INHIBITORS AND METHODS OF USING NME INHIBITORS” (Minerva Biotechnologies Corporation, priority 2013, published 2024).

Assay [1] deals with T1, PSMGFR peptide of the MUC1* extracellular domain (Homo sapiens, UniProt P15941).
T1 sequence (P15941 1110-1154 limits assumed): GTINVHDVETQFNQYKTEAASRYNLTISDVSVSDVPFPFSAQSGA
Kind of assay: SPR and nanoparticle binding of NME1 multimers to PSMGFR peptide (FIG. 17). Set-up: the PSMGFR peptide of the MUC1* extracellular domain is immobilized on the chip. As to conditions: for binding to MUC1* extracellular domain peptide (PSMGFR): SPR chip or gold nanoparticles. An excerpt:
MUC1* extra cellular domain peptide was immobilized onto gold nanoparticles.
(§1) By contrast, NME1 is roughly half the molecular weight of NME7 (˜17 kDa) and has only one NDPK domain. NME1 acts as a growth factor that promotes growth and inhibits differentiation only when it is a dimer. At higher concentrations, NME1 can form hexamers. […] Thus, NME1, which is expressed later in embryogenesis, has the ability to turn itself off, thus limiting self-replication, while NME7 cannot. Wild type (wt) NME1 exists primarily as a hexamer at measurable concentrations. Mutant NME1 proteins, such as S120G that form stable dimer populations have been isolated from cancers and thus are continuously activating the MUC1* receptor. We made recombinant NME1-wt, and the S120G mutant. By varying refolding protocols we were able to stabilize populations that were essentially 100% hexamer or 100% dimer. In addition we isolated populations of NME1-S120G that were a mixture of dimer, tetramer and hexamer. […] In nature, when the concentration of stem cells reaches critical mass and their secretions of NME1 reaches the concentration at which they form hexamers, differentiation is induced. FIG. 18 is a cartoon depicting the mechanism, supported by experiments described herein, by which NME7 and NME1 function to promote pluripotency wherein NME1 regulates itself.

The subject of the next assay is Human stem cells (iPS). Kind of assay: human iPS stem cell culture in NME7-AB or NM23-H1 dimers. The class given is cell-based. As to conditions: 8 nM in minimal media over MN-C3 surface. As for the experimental part: Testing recombinant NME7 for ability to maintain pluripotency and inhibit differentiation. A soluble variant of NME7, NME7-AB, was generated and purified. Human stem cells (iPS cat #SC101a-1, System Biosciences) were grown per the manufacturer's directions in 4 ng/ml bFGF over a layer of mouse fibroblast feeder cells for four passages. These source stem cells were then plated into 6-well cell culture plates (Vita™, Thermo Fisher) that had been coated with 12.5 ug/well of a monoclonal anti-MUC1* antibody, MN-C3. Cells were plated at a density of 300,000 cells per well. The base media was Minimal Stem Cell Media consisting of: 400 ml DME/F12/GlutaMAX I (Invitrogen #10565-018), 100 ml Knockout Serum Replacement (KO-SR, Invitrogen #10828-028), 5 ml 100×MEM Non-essential Amino Acid Solution (Invitrogen#11140-050) and 0.9 ml (0.1 mM) β-mercaptoethanol (55 mM stock, Invitrogen #21985-023). The base media can be any media. In a preferred embodiment, the base media is free of other growth factors and cytokines. To the base media was added either 8 nM of NME7-AB or 8 nM NM23-H1 refolded and purified as stable dimers. Media was changed every 48 hours and due to accelerated growth had to be harvested and passaged at Day 3 post-plating. FIGS. 9 and 10 document the day by day comparison of growth in NM23-H1 dimers to growth in NME7 monomers. […] Cell counts at the first harvest verified that culture in NME7 produced 1.4-times more cells than culture in NM23-H1 dimers.

The next assay concerns human stem cells. The assay is described as follows: human stem cell culture in NME1 dimers or hexamers (FIG. 17D-G). The class given is cell-based.
From the text: as §1

The target of assay [2] is T2, MUC1* extra cellular domain peptide (Homo sapiens, UniProt P15941).
T2 sequence (P15941 with tags, fused parts or gaps): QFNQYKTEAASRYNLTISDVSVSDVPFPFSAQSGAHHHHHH
The assay is described as follows: gold nanoparticle binding assay, NME7 and MUC1* peptide (FIG. 7). Particulars: protein added free in solution. As for the experimental part: Gold nanoparticles of a diameter of 30.0 nm were coated with an NTA-SAM surface according to Thompson et al. (ACS Appl. Mater. Interfaces, 2011, 3 (8), pp 2979-2987). The NTA-SAM coated gold nanoparticles were then activated with an equal volume of 180 uM NiSO4, incubated for 10 min at room temperature, washed, and resuspended in a 10 mM phosphate buffer ([…]). The gold nanoparticles were then loaded with PSMGER N-10 peptide ([…] (SEQ ID NO:155)) at 0.5 uM final concentration, and incubated at room temperature for 10 min. Recombinant NME7-AB protein expressed and purified from E. coli was added free in solution at the concentrations indicated. When particle-immobilized proteins bind to each other, or simultaneously bind to two different peptides on two different particles, the particle solution color changes from pink/red to purple/blue. If the protein added free in solution causes particle aggregation, it is strong evidence that the free protein dimerizes the cognate peptide, since binding to a single peptide would not induce two or more particles to be brought into close proximity to each other.
The NME7-AB is added free in solution at the concentrations indicated. Solution color change from pink to purple/blue from particle aggregation indicates binding between the MUC1* peptide on the particles and NME7 free in solution. […] Particle aggregation, indicating NME7 can simultaneously bind to two peptides is observed. […] The T47D breast cancer cell line Lysate, which contains native NME7 turns noticeably purple also.

For assay [3], the target named is T1, PSMGFR peptide of the MUC1* extracellular domain. The assay is described as follows: ELISA of NME6 binding to PSMGFR peptide (FIG. 19). An excerpt: NME6 is also expressed in very early embryogenesis. NME6 is reportedly a dimer in some species such as sea sponge. NME6 must be expressed at high enough levels that it can form dimers before it can activate growth and inhibit differentiation. Thus, it is expressed at a later stage than NME7. […] We made recombinant NME6 as the wild type protein, or with a single point mutation S139G, which mimics the S120G mutation that causes NME1 to prefer dimer formation. In addition, another NME6 variant was made so that in this sensitive area, the human NME6 would look like sea sponge NME6, which reportedly exists as a dimer. These mutations are S139A plus V142D and V143A. […] In part A, NME6-wt is purified as the monomer or as a high molecular weight multimer. […] In part B, the NME6 multimers are dissociated by dilution in SDS. […] The gels of FIG. 19 D-H show expression of NME6-wt (D), NME6 with the S139G mutation that corresponds to the mutation S120G which in human NME1 increases dimer formation (E), NME6 bearing three mutations that make the human form mimic the sea sponge form that is reported to be a dimer (F), and a single chain protein linking two NME6 proteins (G,H). […] Thus an effective anti-cancer agent would be an antibody, small molecule or other agent that disrupts binding of NME6 dimers to MUC1* extra cellular domain peptide. […]
(In general: ELISA stands for enzyme-linked immunosorbent assay.)

Read-outs that look alike come from different tables or passages of the source.

In the case of “NME1 dimers: recombinant NME1 (NM23-H1) S120G mutant refolded and purified as stable dimers”, the “binding to MUC1* extracellular domain peptide (PSMGFR)” value in assay [1] (listed as NM23 dimers) is “bind to the cognate receptor MUC1*”; in assay [1] (listed as dimer form of NME1) it was “binds to the MUC1* extracellular domain”. Besides, the “binding to N-10 version of the PSMGFR peptide” value in assay [1] (first 10 amino acids of PSMGFR omitted) is listed as “bind to the N-10 version of the PSMGFR peptide”. The “stem cell growth, pluripotency and differentiation” value in the assay on Human stem cells (iPS) was “no differentiation”. Moreover, the “pluripotent stem cell growth / differentiation” value in the assay with human stem cells is on record as “promote pluripotent stem cell growth”. In addition, the “binding to MUC1* peptide on nanoparticles (color change pink to purple/blue)” value in assay [2] is listed as “began to change almost immediately to purple”.

Consider “NME1 hexamers: recombinant NME1 in hexamer form”, for which the “pluripotent stem cell growth / differentiation” value in the assay with human stem cells is reported as “induce differentiation”.

Consider “NME6: recombinant human NME6 wild type protein”, for which the “binding to PSMGFR peptide (ELISA)” value is given as “binds to the PSMGFR peptide” in assay [3] and “preferential binding” in assay [3] (listed as NME6 monomer).
